# From paper PMC2808246, “Mycobacterial Nucleoside Diphosphate Kinase Blocks Phagosome Maturation in Murine Raw 264.7 Macrophages” (PLoS ONE, 2010)
# B1: Mycobacterium tuberculosis nucleoside diphosphate kinase (Ndk), recombinant (enzyme)
# chain: MTERTLVLIKPDGIERQLIGEIISRIERKGLTIAALQLRTVSAELASQHYAEHEGKPFFGSLLEFITSGPVVAAIVEGTRAIAAVRQLAGGTDPVQAAAPGTIRGDFALETQFNLVHGSDSAESAQREIALWFPGA
# B2: Mycobacterium smegmatis nucleoside diphosphate kinase (Ndk), recombinant (enzyme)
# chain: MTERTLVLIKPDGVKRQLVGEILSRIERKGLTLAALELKNVSDDLARQHYAEHADKPFFGSLLEFITSGPLVAAIVEGPRAVAAFRQIAGGTDPVEKAVPGTIRGDFALITQDNLVHGSDSPESAAREIALWFPGEATA
# Tests used:
# [1] = target: T1, Rab5a GTPase, recombinant, GTP-loaded (UniProt P20339 1-215); experiment: cell-based or functional assay
# T1 sequence: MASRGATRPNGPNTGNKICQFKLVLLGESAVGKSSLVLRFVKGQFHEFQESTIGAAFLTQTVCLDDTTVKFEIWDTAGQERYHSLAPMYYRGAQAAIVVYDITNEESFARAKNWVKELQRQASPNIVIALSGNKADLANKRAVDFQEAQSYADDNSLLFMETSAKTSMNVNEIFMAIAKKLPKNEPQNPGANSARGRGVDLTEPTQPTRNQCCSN
# [2] = target: Rab7 GTPase, recombinant, GTP-loaded (UniProt P51149 1-207); experiment: cell-based or functional assay
# Chain of Rab7 GTPase, recombinant, GTP-loaded (P51149 whole entry): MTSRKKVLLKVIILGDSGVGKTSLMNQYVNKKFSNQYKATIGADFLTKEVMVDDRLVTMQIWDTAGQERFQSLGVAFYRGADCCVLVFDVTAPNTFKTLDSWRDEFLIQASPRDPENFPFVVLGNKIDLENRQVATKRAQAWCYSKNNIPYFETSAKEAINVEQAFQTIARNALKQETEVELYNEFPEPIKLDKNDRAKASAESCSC
binder,measurement,setting,value
B1,"GAP activity: depletion of the gamma phosphate of [γ-32P]GTP bound to Rab5 spotted on nitrocellulose, after 2 h with 10 µg/ml Ndk, relative to untreated",[1],95%
same,"GAP activity: depletion of the gamma phosphate of [γ-32P]GTP bound to Rab7 spotted on nitrocellulose, after 2 h with 10 µg/ml Ndk, relative to untreated",[2],90%
B2,"GAP activity: reduction of [γ-32P]GTP bound to Rab5 spotted on nitrocellulose, after 2 h with 10 µg/ml Ndk, relative to untreated",[1],35%
